According to patent US20200317768A1 (published 2020):

T1: cynomolgus monkey FcγRIIb extracellular domain with C-terminal His-tag (cynomolgus monkey)
T1 construct: Expressed in FreeStyle 293 cells and purified; also called cyno FcγRIIb; cynoFcγRIIb; not shown: C-terminal His-tag
T1 chain: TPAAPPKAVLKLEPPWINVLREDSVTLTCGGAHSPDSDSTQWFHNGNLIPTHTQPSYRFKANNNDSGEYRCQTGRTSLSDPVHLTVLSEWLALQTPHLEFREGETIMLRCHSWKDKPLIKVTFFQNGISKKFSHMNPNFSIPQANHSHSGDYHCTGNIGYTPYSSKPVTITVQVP

T2: cynomolgus monkey FcγRIIa1 extracellular domain with C-terminal His-tag (cynomolgus monkey)
T2 construct: Expressed in FreeStyle 293 cells and purified; also called cyno FcγRIIa1; cynoFcgRIIa1; not shown: C-terminal His-tag
T2 chain: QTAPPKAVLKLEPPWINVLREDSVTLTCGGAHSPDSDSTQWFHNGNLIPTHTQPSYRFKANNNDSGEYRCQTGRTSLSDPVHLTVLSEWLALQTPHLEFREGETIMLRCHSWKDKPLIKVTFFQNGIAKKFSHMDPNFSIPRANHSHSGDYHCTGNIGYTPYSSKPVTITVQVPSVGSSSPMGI

T3: cynomolgus monkey FcγRIIa2 extracellular domain with C-terminal His-tag (cynomolgus monkey)
T3 construct: Expressed in FreeStyle 293 cells and purified; also called cyno FcγRIIa2; cynoFcgRIIa2; not shown: C-terminal His-tag
T3 chain: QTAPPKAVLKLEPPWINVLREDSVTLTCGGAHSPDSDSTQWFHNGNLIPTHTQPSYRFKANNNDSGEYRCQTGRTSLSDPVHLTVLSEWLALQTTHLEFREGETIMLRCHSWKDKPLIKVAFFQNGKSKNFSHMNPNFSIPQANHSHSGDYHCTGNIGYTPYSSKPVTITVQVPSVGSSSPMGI

T4: human FcγRIIaH extracellular domain with C-terminal His-tag (human, UniProt P12318 34-217)
T4 construct: Expressed in FreeStyle 293 cells and purified; also called human FcγRIIa (type H); FcgRIIaH; not shown: C-terminal His-tag
T4 sequence: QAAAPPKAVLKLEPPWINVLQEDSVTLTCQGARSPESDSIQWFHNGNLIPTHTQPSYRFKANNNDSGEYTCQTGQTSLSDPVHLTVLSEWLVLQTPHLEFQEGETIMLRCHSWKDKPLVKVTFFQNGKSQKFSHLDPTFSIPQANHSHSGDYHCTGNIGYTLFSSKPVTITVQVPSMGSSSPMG

T5: human FcγRIIb extracellular domain with C-terminal His-tag (human, UniProt P31994 43-217)
T5 construct: Expressed in FreeStyle 293 cells and purified; also called humanFcgRIIb; not shown: C-terminal His-tag
T5 sequence: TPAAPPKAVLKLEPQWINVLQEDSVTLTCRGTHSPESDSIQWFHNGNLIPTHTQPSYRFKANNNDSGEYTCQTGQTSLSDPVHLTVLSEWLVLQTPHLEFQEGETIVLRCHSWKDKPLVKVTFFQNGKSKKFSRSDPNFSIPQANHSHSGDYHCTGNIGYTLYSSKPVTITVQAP

T6: cynomolgus monkey FcγRIIa3 extracellular domain with C-terminal His-tag (cynomolgus monkey)
T6 construct: Expressed in FreeStyle 293 cells and purified; also called cyno FcγRIIa3; cynoFcgRIIa3; not shown: C-terminal His-tag
T6 chain: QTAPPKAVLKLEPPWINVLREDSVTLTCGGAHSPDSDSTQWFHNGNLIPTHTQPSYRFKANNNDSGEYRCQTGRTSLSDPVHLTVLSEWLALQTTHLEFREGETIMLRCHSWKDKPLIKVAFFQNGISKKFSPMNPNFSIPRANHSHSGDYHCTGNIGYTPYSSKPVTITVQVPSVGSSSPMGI

T7: human FcγRIIaR extracellular domain with C-terminal His-tag (human, UniProt P12318 34-217)
T7 construct: Expressed in FreeStyle 293 cells and purified; also called human FcγRIIa (type R); FcgRIIaR; not shown: C-terminal His-tag
T7 chain: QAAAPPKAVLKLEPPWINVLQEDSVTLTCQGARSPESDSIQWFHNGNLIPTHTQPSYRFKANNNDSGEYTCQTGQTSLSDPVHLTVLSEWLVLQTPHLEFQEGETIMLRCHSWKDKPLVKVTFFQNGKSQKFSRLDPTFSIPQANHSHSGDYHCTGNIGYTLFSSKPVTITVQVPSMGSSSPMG

T8: cynomolgus monkey FcγRIIIaS extracellular domain with C-terminal His-tag (cynomolgus monkey, UniProt Q8SPW2 21-206 at identity 1.00))
T8 construct: Expressed in FreeStyle 293 cells and purified; also called cyno FcγRIIIaS; cynoFcγRIIIaS; not shown: C-terminal His-tag
T8 chain: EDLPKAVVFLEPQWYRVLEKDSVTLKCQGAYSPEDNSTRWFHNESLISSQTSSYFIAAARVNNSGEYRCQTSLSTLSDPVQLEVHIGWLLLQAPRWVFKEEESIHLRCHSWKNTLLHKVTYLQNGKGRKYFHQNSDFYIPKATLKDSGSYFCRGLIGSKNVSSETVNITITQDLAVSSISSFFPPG


Columns and labels:
Test in all cases: SPR (Biacore); KD of SG1 divided by KD of the variant for this FcgR;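 note: relative to parent M103205H795-SG1 carrying the SG1 human heavy chain constant region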
[1] = biological target: T1, cynomolgus monkey FcγRIIb extracellular …
Experimental: (§1) Regarding such interactions, KD values were calculated using the following 1:1 binding model described in BIACORE® T100 Software Handbook BR1006-48 Edition AE.
(§2) The behavior of interacting molecules according to the 1:1 binding model on BIACORE® can be described by Equation 1: Req=C·R max/(KD+C)+RI, wherein, Req is a plot of steady-state binding levels to analyte concentration. C is concentration, RI is bulk refractive index contribution in the sample, and Rmax is analyte binding capacity of the surface. When this equation is rearranged, KD can be expressed as Equation 2: KD=C·Rmax/(Req−RI)−C. KD can be calculated by substituting the values of Rmax, RI, and C into Equation 1 or Equation 2. From the current measurement conditions, RI=0, C=2 μmol/L can be used.
(§3) The variants were expressed using M103202L889-SK1 as the light chain and their affinity was analyzed.

[2] = biological target: T2, cynomolgus monkey FcγRIIa1 …
Experimental: as §1, §2, §3

[3] = biological target: T3, cynomolgus monkey FcγRIIa2 …
Experimental: as §1, §2, §3

[4] = biological target: T4, human FcγRIIaH extracellular domain …
Experimental: as §1, §2, §3

[5] = biological target: T9, human FcγRIIIaV extracellular domain with C-terminal His-tag (human, UniProt P08637 17-208)
T9 construct: Expressed in FreeStyle 293 cells and purified; also called FcgRIIIaV; not shown: C-terminal His-tag
T9 sequence (P08637 17-208 F176V): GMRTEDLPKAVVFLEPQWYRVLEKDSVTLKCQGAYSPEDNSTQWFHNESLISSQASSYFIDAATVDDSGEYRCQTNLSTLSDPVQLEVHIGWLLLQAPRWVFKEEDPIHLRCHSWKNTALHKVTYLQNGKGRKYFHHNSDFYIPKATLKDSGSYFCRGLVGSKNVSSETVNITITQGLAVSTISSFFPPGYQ
Experimental: as §1, §2, §3

[6] = biological target: T5, human FcγRIIb extracellular domain with …
Experimental: as §1, §2, §3

[7] = biological target: T6, cynomolgus monkey FcγRIIa3 …
Experimental: as §1, §2, §3

[8] = biological target: T7, human FcγRIIaR extracellular domain …
Experimental: as §1, §2, §3

[9] = biological target: T8, cynomolgus monkey FcγRIIIaS …
Experimental: as §1, §2, §3

KD fold (SG1 = 1) [1] | KD fold (SG1 = 1) [2] | KD fold (SG1 = 1) [3] | KD fold (SG1 = 1) [4] | KD fold (SG1 = 1) [5] | KD fold (SG1 = 1) [6] | KD fold (SG1 = 1) [7] | KD fold (SG1 = 1) [8] | KD fold (SG1 = 1) [9] | Binder
7.5 fold | 7.3 fold | 15.5 fold | 1.3 fold | 0.12 fold | 11 fold | 12.1 fold | 1.4 fold | 0.18 fold | M103205H795-MY198 / M103202L889-SK1 (antibody, human IgG1, kappa, Fc variant of M103205H795-SG1, expressed with M103202L889-SK1 as light chain) heavy: QVTLKESGPVLVKPTETLTLTCTVSGIDLSHDDISWVRQAPGKGLEWVGIISYAGSTYYASWAKGRLTISKDTSKNQVVLTMTNMDPVDTATYYCARGVPAYSHGGDLWGQGTLVTVSSASTKGPSVFPLAPSSKSTSGGTAALGCLVKDYFPEPVTVSWNSGALTSGVHTFPAVLQSSGLYSLSSVVTVPSSSLGTQTYICNVNHKPSNTKVDKKVEPKSCDKTHTCPPCPAPELLNGPVVFLFPPKPKDTLMISRTPEVTCVVVDVSDEDPEVKFNWYVDGVEVHNAKTKPREEQYNSTYRVVSVLTVLHQDWLNGKEYKCKVSNKALPKPIEKTISKAKGQPREPQVYTLPPSREEMTKNQVSLTCLVKGFYPSDIAVEWESNGQPENNYKTTPMVLDSDGSFFLYSKLTVDKSRWQQGNVFSCSVMHEALHNHYTQKSLSLSP light: DIVMTQSPATLSLSPGERATLSCTSSQSVYHANWLSWFQQKPGQPPKLLIYWASTLAYGVPSRFSGSGSGTDFTLTISSLQPEDAATYYCAGGYGGGRYAFGQGTKVEIKRTVAAPSVFIFPPSDEQLKSGTASVVCLLNNFYPREAKVQWKVDNALQSGNSQESVTEQDSKDSTYSLSSTLTLSKADYEKHKVYACEVTHQGLSSPVTKSFNRGEC
1.6 fold | 1.7 fold | 2.6 fold | 0.6 fold | 0.06 fold | 2.4 fold | 1.4 fold | 0.4 fold | 0.09 fold | M103205H795-MY199 / M103202L889-SK1 (antibody, human IgG1, kappa, Fc variant of M103205H795-SG1, expressed with M103202L889-SK1 as light chain) heavy: QVTLKESGPVLVKPTETLTLTCTVSGIDLSHDDISWVRQAPGKGLEWVGIISYAGSTYYASWAKGRLTISKDTSKNQVVLTMTNMDPVDTATYYCARGVPAYSHGGDLWGQGTLVTVSSASTKGPSVFPLAPSSKSTSGGTAALGCLVKDYFPEPVTVSWNSGALTSGVHTFPAVLQSSGLYSLSSVVTVPSSSLGTQTYICNVNHKPSNTKVDKKVEPKSCDKTHTCPPCPAPELLNGPSVFLFPPKPKDTLMISRTPEVTCVVVDVSEEDPEVKFNWYVDGVEVHNAKTKPREEQYNSTYRVVSVLTVLHQDWLNGKEYKCKVSNKALPKPIEKTISKAKGQPREPQVYTLPPSREEMTKNQVSLTCLVKGFYPSDIAVEWESNGQPENNYKTTPPVLDSDGSFFLYSKLTVDKSRWQQGNVFSCSVMHEALHNHYTQKSLSLSP light: DIVMTQSPATLSLSPGERATLSCTSSQSVYHANWLSWFQQKPGQPPKLLIYWASTLAYGVPSRFSGSGSGTDFTLTISSLQPEDAATYYCAGGYGGGRYAFGQGTKVEIKRTVAAPSVFIFPPSDEQLKSGTASVVCLLNNFYPREAKVQWKVDNALQSGNSQESVTEQDSKDSTYSLSSTLTLSKADYEKHKVYACEVTHQGLSSPVTKSFNRGEC
1.6 fold | 1.9 fold | 3.4 fold | 0.4 fold | 0.05 fold | 3.3 fold | 3.4 fold | 0.4 fold | 0.08 fold | M103205H795-MY200 / M103202L889-SK1 (antibody, human IgG1, kappa, Fc variant of M103205H795-SG1, expressed with M103202L889-SK1 as light chain) heavy: QVTLKESGPVLVKPTETLTLTCTVSGIDLSHDDISWVRQAPGKGLEWVGIISYAGSTYYASWAKGRLTISKDTSKNQVVLTMTNMDPVDTATYYCARGVPAYSHGGDLWGQGTLVTVSSASTKGPSVFPLAPSSKSTSGGTAALGCLVKDYFPEPVTVSWNSGALTSGVHTFPAVLQSSGLYSLSSVVTVPSSSLGTQTYICNVNHKPSNTKVDKKVEPKSCDKTHTCPPCPAPELLNGPVVFLFPPKPKDTLMISRTPEVTCVVVDVSEEDPEVKFNWYVDGVEVHNAKTKPREEQYNSTYRVVSVLTVLHQDWLNGKEYKCKVSNKALPKPIEKTISKAKGQPREPQVYTLPPSREEMTKNQVSLTCLVKGFYPSDIAVEWESNGQPENNYKTTPPVLDSDGSFFLYSKLTVDKSRWQQGNVFSCSVMHEALHNHYTQKSLSLSP light: DIVMTQSPATLSLSPGERATLSCTSSQSVYHANWLSWFQQKPGQPPKLLIYWASTLAYGVPSRFSGSGSGTDFTLTISSLQPEDAATYYCAGGYGGGRYAFGQGTKVEIKRTVAAPSVFIFPPSDEQLKSGTASVVCLLNNFYPREAKVQWKVDNALQSGNSQESVTEQDSKDSTYSLSSTLTLSKADYEKHKVYACEVTHQGLSSPVTKSFNRGEC
